Assay results: patent US20130137856A1, “PROTEIN BINDING DOMAINS STABILIZING FUNCTIONAL CONFORMATIONAL STATES OF GPCRS AND USES THEREOF” (priority 2010, published 2013)
Where a chain is given by its changes, count along the chain named. Entries after “also recorded” stand apart in the source; their conditions may differ.

Tests used:
β2AR [1] = assay: Size exclusion chromatography of nanobody with purified detergent-solubilized β2AR; format: binding, human; settings: 20 μM β2AR bound to an agonist, 40 μM nanobody
Method: The mixture was then analyzed by Size Exclusion Chromatography (SEC), which separates protein on the basis of size. Seven of the nanobodies bound to purified β2AR and migrated as a complex on SEC only in the presence of agonist and not an inverse agonist (an example is shown in FIG. 1, Panel a, FIG. 3 and FIG. 4).
Agonist selective nanobodies were identified by size exclusion chromatography following incubation of 20 μM agonist or inverse agonist- (carazolol-) bound β2AR-365N for one hour at RT in the absence or presence of 40 μM nanobody.

β2AR [2] = target: T1, β2AR (Homo sapiens, UniProt P07550); assay: Monobromobimane (mBBr) fluorescence of labeled purified β2AR; format: biochemical; settings: for mBBr fluorescence change of isoproterenol-bound β2AR with nanobody (active state): 1 μM nanobody plus full agonist isoproterenol
Excerpt: To investigate the effect of nanobodies on movement of the cytoplasmic domain of TM6 we labeled purified β2AR at C265 with monobromobimane (mBB-β2AR). […] In mBB-β2AR, the addition of agonist together with G protein results in larger fluorescent changes than either agonist or G protein alone. This is compatible with the cooperative interactions observed in agonist competition binding assays (Yao et al. 2009).
Purified β2AR was reacted with 1:1 equivalent of monobromobimane (mBBr, Invitrogen) in 100 mM NaCl, 20 mM HEPES, pH 7.5, 0.1% dodecyl maltoside and incubated overnight on ice in the dark. The fluorophore-labeled receptor was purified right before use by gel filtration on a desalting column equilibrated with the same buffer. […] All experiments were performed at 25° C. […] To determine the effect of nanobodies and ligands, three individual labeled protein samples were incubated with 1 μM nanobody or 10 μM Isoproterenol or both. Emission spectra of the samples were taken after 1 hour incubation.

β2AR [3] = target: T1, β2AR; assay: [3H]-DHA competition binding on Sf9 insect cell membranes expressing β2AR, with or without nanobody; set-up: recombinant β2AR truncated at Gly365 (β2AR-365); made in house; host or cells: Sf9 insect cells (membranes); settings: agonist competition binding with versus without nanobody
Excerpt: Panel b: Dose-response competition binding experiments on Sf9 insect cell membranes expressing β2AR.

β2AR-T4L = assay: [3H]-DHA competition binding on β2AR-T4L reconstituted in HDL particles; set-up: species or system human
β2AR [4] = target: T1, β2AR; assay: Competition radioligand binding on commercial insect cell membranes with full-length human β2AR, Nb80 versus irrelevant Nb; settings: radioligand displacement with Nb80 versus irrelevant Nanobody
β2AR [5] = target: T1, β2AR; assay: Fluorescent (CPM) thermal stability assay of detergent-solubilized β2AR
Method: (§1) The effect of conformational selective nanobodies on the thermostability and the subsequent aggregation of the β2AR receptor was analyzed using a fluorescent thermal stability assay (FIG. 13) and size exclusion chromatography (FIG. 14).
The fluorescent thermal stability assay makes use of the thiol-specific fluorochrome N-[4-(7-diethylamino-4-methyl-3-coumarinyl)phenyl]maleimide (CPM) to measure the chemical reactivity of the native cysteines embedded in the protein interior as a sensor for the overall integrity of the folder state of membrane proteins (Alexandrov et al. 2008). For the fluorescent thermal stability assay, detergent-solubilized receptor (in 0.1% dodecylmaltoside, 100 mM NaCl and 20 mM Hepes pH 7.5) was pre-incubated with isoproterenol (10 μM) in the presence or absence of a 2:1 molar excess of Nb80 for one hour at RT. Samples were then mixed with CPM fluorophore and incubated for two minutes at temperatures ranging from 10° C. to 94° C. and fluorescence emission was collected. […] Unfolding transitions could be described by a simple two-state model, including the native (folded) and the denaturated state, representing the lower and upper plateaus of the melting curves.

β2AR [6] = target: T1, β2AR; assay: Temperature-induced aggregation of β2AR analyzed by SEC; settings: DDM-solubilized β2AR, 10 μM isoproterenol, 2:1 molar excess of Nb80, 10 minutes at increasing temperatures
Method: as §1
We also analyzed the effect of Nb80 on the thermal unfolding and aggregation of the agonist-bound receptor by size exclusion chromatography (SEC). For this experiment, dodecylmaltoside-solubilized receptor was pre-incubated with isoproterenol (10 μM) in the presence or absence of a 2:1 molar excess of Nb80 for 45 minutes at RT. Samples were next incubated for 10 minutes at increasing temperatures and subsequently analyzed by SEC (FIG. 14).

human β1AR = human β1AR (Homo sapiens, UniProt P08588); assay: [3H]-DHA competition binding on β1AR with and without Nb80
Excerpt: Active state stabilizing Nanobodies that are cross-reactive to related receptors can be used as a tool to stabilize a conformational state of those related receptors. […] Using the PISA server (Krissinel & Henrick, 2007) and based on the crystal structure of the Nb80-β2AR complex, 30 β2AR AA residues were identified to interact with Nb80 in the β2AR-Nb80 interface. […] The remaining interface residues are lysines in β2AR and have been substituted by arginines in β1AR corresponding to conserved substitutions (shown in grey boxes in FIG. 17). It thus appears that both receptors share a very similar binding site for Nb80. Based on this analysis, we also measured the effect of Nb80 on the affinity of […] for the agonist isoproterenol and the inverse agonist CGP20712A (FIG. 18).

[7] = Effect of Nb80 on ligand affinity of an unrelated receptor; format: binding; settings: data not shown
β2AR [8] = target: T1, β2AR; assay: Bimane fluorescence spectroscopy on mBB-β2AR reconstituted in HDL particles; settings: Nb80 with 10 μM isoproterenol
β2AR [9] = target: T1, β2AR; assay: [3H]-DHA competition binding on β2AR reconstituted in HDL particles; set-up: recombinant β2AR truncated at Gly365 (β2AR-365); made in house; host or cells: Sf9 insect cells (membranes)

human β1AR, sequence (P08588 whole entry): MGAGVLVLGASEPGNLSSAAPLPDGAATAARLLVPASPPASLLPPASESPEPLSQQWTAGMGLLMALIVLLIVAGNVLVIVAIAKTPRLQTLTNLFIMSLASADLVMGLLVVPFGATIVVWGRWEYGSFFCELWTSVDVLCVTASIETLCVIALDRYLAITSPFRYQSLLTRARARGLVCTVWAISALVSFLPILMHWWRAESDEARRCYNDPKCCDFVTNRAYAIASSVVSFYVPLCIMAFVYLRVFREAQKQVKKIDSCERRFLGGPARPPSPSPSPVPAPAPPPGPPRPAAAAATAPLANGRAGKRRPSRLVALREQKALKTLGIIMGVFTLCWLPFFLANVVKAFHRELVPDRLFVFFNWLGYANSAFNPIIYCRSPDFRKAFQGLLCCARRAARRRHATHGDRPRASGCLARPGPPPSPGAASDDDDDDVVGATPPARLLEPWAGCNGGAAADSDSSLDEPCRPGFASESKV

B1: NB71: β2AR-specific nanobody, SEQ ID NO:25 (protein, listed as Lama glama)
VHH: QVQLQESGGGLVQPGGSLRLSCAASGFAFSSYELRWYRQAPGKQHELVAGITTGGNTYYADSVKGRFTISRDNAKNTVYLQMSNLRPEDTAVYACNANWDLLSDYWGQGTQVTVSS
- Complex formation with agonist-bound β2AR on SEC (β2AR [1]): complex formation
- mBBr fluorescence change of isoproterenol-bound β2AR with nanobody (active state) (β2AR [2]; listed as 71): Comparable results; also recorded: stabilize a more active state
- Enhancement of β2AR affinity for the agonist isoproterenol in the presence of the nanobody (β2AR [3]): two- to thirty-fold

B2: NB72: β2AR-specific nanobody, probably CA2772, SEQ ID NO:24; CA3472 carries the same short notation (protein, listed as Lama glama)
VHH: QVQLQESGGGLVQPGGSLRLSCAASGFTFSGYAMNWVRQAPGKGPEWVSAINSGGGSTSYADSVKGRFTISRDNAKNTVYLQMNSLKPEDTAVYYCHARDIYSDFLGQYEYDYWGQGTQVTVSS
- Complex formation with agonist-bound β2AR on SEC (β2AR [1]): complex formation
- mBBr fluorescence change of isoproterenol-bound β2AR with nanobody (active state) (β2AR [2]; listed as 72): Comparable results; also recorded: stabilize a more active state
- Enhancement of β2AR affinity for the agonist isoproterenol in the presence of the nanobody (β2AR [3]): two- to thirty-fold

B3: NB84: β2AR-specific nanobody, probably CA2784, SEQ ID NO:29; CA3484 carries the same short notation (protein, listed as Lama glama)
VHH: QVQLQESGGGLVQAGGSLRLSCAASGSIFSINAMGWYRQAPGKQRELVAAITSGGSTTYADSVKGRFTVSRDNAKNTVYLQMIRLKPEDTAVYYCHVRDIYSDFLGQYEYDYWGQGTQVTVSS
- Complex formation with agonist-bound β2AR on SEC (β2AR [1]): complex formation
- mBBr fluorescence change of isoproterenol-bound β2AR with nanobody (active state) (β2AR [2]; listed as 84): Comparable results; also recorded: stabilize a more active state
- Enhancement of β2AR affinity for the agonist isoproterenol in the presence of the nanobody (β2AR [3]): two- to thirty-fold

B4: NB65: β2AR-specific nanobody, SEQ ID NO:5 (protein, listed as Lama glama)
VHH: QVQLQESGGGLVQAGGSLRLSCAASGSIFSINTMGWYRQAPGKQRELVAAIHSGGSTNYADSVRGRFTISRDNAKNTVYLQMNSLKPEDTAVYYCNVKDYGAVLYEYDYWGQGTQVTVSS
- Complex formation with agonist-bound β2AR on SEC (β2AR [1]): complex formation
- mBBr fluorescence change of isoproterenol-bound β2AR with nanobody (active state) (β2AR [2]; listed as 65): Comparable results; also recorded: stabilize a more active state
- Enhancement of β2AR affinity for the agonist isoproterenol in the presence of the nanobody (β2AR [3]): two- to thirty-fold

B5: NB80: β2AR-specific nanobody, SEQ ID NO:4; lead nanobody stabilizing the active state (protein, listed as Lama glama)
VHH: B4 VHH with D61N, R64K, K75A
- Increase of isoproterenol affinity in the presence of Nb80 (β2AR-T4L; β2AR-T4L/HDL with Nb80 versus without): 60 fold
- Effect of Nb80 on affinity for the inverse agonist ICI-118,551 (β2AR-T4L; β2AR-T4L/HDL, ICI-118,551 competing against [3H]-DHA): does not increase the affinity
- Effect of Nb80 on β2AR affinity for agonists and antagonists (β2AR [4]): increases β2AR affinity for agonists but not for antagonists
- Complex formation with agonist-bound β2AR on SEC (β2AR [1]): β2AR-agonist-Nb80 complex formation
- mBBr fluorescence change of isoproterenol-bound β2AR with nanobody (active state) (β2AR [2]): larger changes were observed when both agonist and nanobody were added together; also recorded: stabilizes a more active state
- mBBr fluorescence change of β2AR with nanobody alone (β2AR [2]; Nb80 alone, no agonist): relatively small changes in fluorescence
- Apparent melting temperature for β2AR with Nb80 (β2AR [5]; DDM-solubilized, isoproterenol-bound β2AR, 2:1 molar excess of Nb80): 24 °C
- Increase of the melting temperature (Tm) of the agonist-bound receptor (β2AR [5]; isoproterenol (10 μM)-bound β2AR with versus without Nb80): 12 °C
- Effect on temperature-induced aggregation of the agonist-bound receptor (β2AR [6]): protects the agonist-bound receptor against temperature-induced aggregation
- Conformational selectivity of Nb80 binding to human β1AR (human β1AR): selectively binds the active conformation
- Effect of Nb80 on affinity of the agonist isoproterenol for β1AR (human β1AR; [3H]-DHA competition): increased affinity
- Effect of Nb80 on β1AR affinity for CGP20712A (human β1AR; [3H]-DHA competition): does not change the affinity
- Effect of Nb80 on unrelated receptors [7]: No such effect
- Effect on bimane fluorescence in the presence of isoproterenol (β2AR [8]): increased
- Enhancement of β2AR affinity for the agonist isoproterenol in the presence of the nanobody (β2AR [3]): two- to thirty-fold
- Increase of isoproterenol affinity in the presence of Nb80 (β2AR [9]; β2AR/HDL with Nb80 versus without): 95 fold
- Effect of Nb80 on affinity for the inverse agonist ICI-118,551 (β2AR [9]; β2AR/HDL, ICI-118,551 competing against [3H]-DHA): does not increase the affinity; also recorded: little effect

B6: NB67: β2AR-specific nanobody, SEQ ID NO:20 (protein, listed as Lama glama)
VHH: QVQLQESGGGLVQAGGSLRLSCAASGTISSFIAMGWYRQSPGKQRELVAGITSGGETNYEDSVKGRFTISRDNAKNTLYLQMNTLKPEDTAVYYCNAQVFADIFNLINYWGQGTQVTVSS
- Complex formation with agonist-bound β2AR on SEC (β2AR [1]): complex formation
- mBBr fluorescence change of isoproterenol-bound β2AR with nanobody (active state) (β2AR [2]; listed as 67): Comparable results; also recorded: stabilize a more active state
- Enhancement of β2AR affinity for the agonist isoproterenol in the presence of the nanobody (β2AR [3]): two- to thirty-fold

B7: NB69: β2AR-specific nanobody, SEQ ID NO:26 (protein, listed as Lama glama)
VHH: QVQLQESGGGLVQPGGSLRLSCAASGSIFSINAMGWYRQAPGKQRDLVASITSGGSTNYADSVKGRFTISRDNAKNTVYLQMNSLKPEDTAVYYCNVQGTGPSSWLFNEYDYWGQGTQVTVSS
- Complex formation with agonist-bound β2AR on SEC (β2AR [1]): complex formation
- mBBr fluorescence change of isoproterenol-bound β2AR with nanobody (active state) (β2AR [2]; listed as 69): Comparable results; also recorded: stabilize a more active state
- Enhancement of β2AR affinity for the agonist isoproterenol in the presence of the nanobody (β2AR [3]): two- to thirty-fold
